Assay: label from the status in PepcDB records

Sequence	protein production
MTLTIPNAPGSSGYLDMFPERRMSYFGNSYILGLTVTAGIGGLLFGYDTGVISGALLYIKDDFEVVKQSSFLQVYNVSSFTSSKLETIVSMALVGAMIGAAAGGWINDYYGRKKATLFADVVFAAGAIVMAAAPDPYVLISGRLLVGLGVGVASVTAPVYIAEASPSEVRGGLVSTNVLMITGGQFLSYLVNSAFTQVPGTWRWMLGVSGVPAVIQFILMLFMPESPRWLFMKNRKAEAIQVLARTYDISRLEDEIDHLSAAEEEEKQRKRTVGYLDVFRSKELRLAFLAGAGLQAFQQFTGINTVMYYSPTIVQMAGFHSNQLALFLSLIVAAMNAAGTVVGIYFIDHCGRKKLALSSLFGVIISLLILSVSFFKQSETSSDGGLYGWLAVLGLALYIVFFAPGMGPVPWTVNSEIYPQQYRGICGGMSATVNWISNLIVAQTFLTIAEAAGTGMTFLILAGIAVLAVIFVIVFVPETQGLTFSEVEQIWKERAYGNISGWGSSSDSNNMEGLLEQGSQS	not failed
MTLTMGFIGFGKSANRYHLPYLKTRNNIKVKTIFVRQINEELAAPYEERGVYFTTDLDELLNDKEIQVVTICTPAHTHYELAKKVILAGKSVIVEKPFCDTVEHAKELLALGREKGVVVMPYQNRRFDGDFLAVKQVVEQGFLGDIIEIESHIDYFRPGSITHEAPKEEGSFYSLGIHTMDRMISLFGRPNTVTYDIRNNEVEGAVDNYFDVGLHYGNQLKIKLKTNHIVAKDYPRFIVHGTNGSFIKYGEDQQENDLKAGIMPESAGFGEDSPMYYGIAKYRNANGDWIEKQIKTPLGDYGRFYDAAYDTIVNGAPKLVKDEEAVTNIEILENGFAAPSPSVYKLEALHLNELEHHHHHH	not failed
MTLVRMTEKLLSPLHTRPWPERWLTRVLGAALASAAYLLCLPWDLNNRAPSPGAVEETTPVTGVGVVALAVILLALAAYFGHRDSLGWPVLLVAVPPAALLYVSLRTHPGPPDGFAGVWPLVWGFFTLLIGVGVLVAAAVAREFRADLVDEELSLAHRR	failed
MTLVSVVLPVYQGAPWIRGALDCLAAQTHRPLEILVVDDASSDGTPAVVEDWRARHPDLSVRLIVRPENGGPGVARNDALALARGAYVAFLDADDRCVPWRLARQLARLEAEPGLGSVGAWYDMVDADGTPVAARRLSVTAGEMAWAALIHPPFLLSTLMTRRALCRPGIFAPRHQGEDAPAQRRLLWQAPAAMIEEVLVTYRTDPHRPQDPRMGVAMAEDLAPLTGPLSAAEAWALHDALLAFPNRVTPAAIAAVSGLFTLLGVFRGLRPAWMTRPEYNRLFEGYLDLAAPFLAAHGESLLAPPSPQAPRVAPWMGPWEAEWRAGEARSDRPRPKEIFPPVGGDSPSKLSG	failed
MTLVVPFDGSELAEAALVRAAEFGTVFEEDVLAVSVIRNGNAKYAREHDWIGPNEDFDLEAVVTSLHEQVIDLCPSSDFRHTVVDRYAPAGAVAKAIRKLAKREDASMVFIGSENAGHLVTSISSVGGSIASDDAYDVVIVRHRNPSKIAKLRNTSPHRQSKSDFYLPE	failed
MTLYTNDYLEFYLTLVGWLINNGIWDMISDTGLFALPFLIIVVREWIKVRQEGADEGNKGVLSLARIETQLYIGYVVVSLCAIPVMSVGFDTLQFDQTRAKQCQVLLPAPGDTGWNTTFSSLTGKSARIPIWWAVMHSLSKGLNSGAVAAIPCGTDLRQMRMDVDAIRIDNPLLAQEVADFTHDCFGPSRARLFMRQPDLGAITKDPKTLQDLNWIGSRFLLNTSGYYDTDYSKTPRTAWPYDAKRDDGLPQVTGGGGYPTCKQWWSDGSIGLRDRLQAQVDPTLMNKLLGWAKWLSKDEVTDSMIRQVVSPSSQVNGDVYSDYGGQIGGTMWNGLARAGGTLGVGVGSLAYFPGMDIVRQALPMVMAFLKMAMVICLPLVLIIGAYQLKVAMTMSVVFFALIFVDFWFQLARWVDSTIIDVLYGSGSPHLSFDPVMGLNTTTQDAILNFVMGAMFIILPLFWMSALAWAGVQVSGVLEGLSRGTQSVERAGASGGGIAQQAVGSIGGKS	failed
MTMADETIILNVLGQYTRAHDRRDPDAMAALFAPEATIEIVDAVGGASRSISRLEGRDAIRVAVRQMMAPHGYRAWSQNVVNAPIIVIEGDHAVLDAQFMVFSILAAEVPDGGWPTGTFGAQGRIVPIEAGQYRLTLRTVADGWVISAMRIEHRLPMAFG	not failed
MTMDGDSSTTDASQLGISADYIGGSHYVIQPHDDTEDSMNDHEDTNGSKESFREQDIYLPIANVARIMKNAIPQTGKIAKDAKECVQECVSEFISFITSEASERCHQEKRKTINGEDILFAMSTLGFDSYVEPLKLYLQKFREAMKGEKGIGGAVTATDGLSEELTEEAFTNQLPAGLITTDGQQQNVMVYTTSYQQISGVQQIQFS	failed

From a protein production outcome set (Wang et al. 2014)
